Measurements published in paper PMC5410128, “Can Aptameric Ligands Specific to Plasma Coagulation Factor VII Bind the Recombinant Form with High Affinity: Affinity Measurement by Fluorescence Method”.

B1: Apt81 (ssDNA)
DNA: GGGAGATAGCCACGACCTATGCAGCCAGCCGCAGTGTAAGTGAATGCAGACATGGTCTAAGTGTCCAGGCTGTGCGAAAGC
B2: Apt44 (ssDNA)
DNA: CCGCACACCACGCGCATAATCCCGCGCACACGACTTGAAGTAGC

Target: recombinant activated coagulation factor VII (FVIIa, AryoSeven) (UniProt P08709;P08709 61-212;213-466)
Assay: fluorescence intensity change (FAM), plate reader; 5 mM Ca2+, 5 mM Mg2+; 40 mM Tris, 117 mM NaCl, 5 mM CaCl2, 5 mM MgCl2, pH 7.4; 1 nM protein, aptamer 100 pM-10 uM; 4 C, 1 h; errors are SE
Conditions: copies: 1;1, single strand, predicted partly folded

Sequence of recombinant activated coagulation factor VII (FVIIa, AryoSeven) (P08709 61-212, chain 1 of 2): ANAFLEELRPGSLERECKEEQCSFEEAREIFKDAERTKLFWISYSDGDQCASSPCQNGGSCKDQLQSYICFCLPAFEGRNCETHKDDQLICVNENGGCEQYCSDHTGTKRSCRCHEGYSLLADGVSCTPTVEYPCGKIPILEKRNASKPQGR
Sequence of recombinant activated coagulation factor VII (FVIIa, AryoSeven) (P08709 213-466, chain 2 of 2): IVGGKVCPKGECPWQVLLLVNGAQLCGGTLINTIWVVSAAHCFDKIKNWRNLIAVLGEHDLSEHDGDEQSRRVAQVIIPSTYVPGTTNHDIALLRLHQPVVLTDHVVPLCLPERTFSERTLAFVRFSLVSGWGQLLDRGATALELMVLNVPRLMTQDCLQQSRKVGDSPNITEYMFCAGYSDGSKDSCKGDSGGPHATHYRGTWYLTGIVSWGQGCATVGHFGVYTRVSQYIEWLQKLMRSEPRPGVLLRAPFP

Binder	Kd [nM]
B1	938 ± 149
B2	167 ± 18
